Laboratory results as given in IntAct's records for PubMed 17891150.

B1: Trinucleotide repeat-containing gene 6B protein (Homo sapiens), Q9UPQ9-2 (parent)
chain: MQTNEGEVSEESSSKVEQEDFVMEGHGKTPPPGEESKQEKEQEREEQLMEDKKRKKEDKKKKEATQKVTEQKTKVPEVTKPSLSQPTAASPIGSSPSPPVNGGNNAKRVAVPNGQPPSAARYMPREVPPRFRCQQDHKVLLKRGQPPPPSCMLLGGGAGPPPCTAPGANPNNAQVTGALLQSESGTAPVWSKSTPPAPDNGTSAWGEPNESSPGWGEMDDTGASTTGWGNTPANAPNAMKPNSKSMQDGWGESDGPVTGARHPSWEEEEDGGVWNTTGSQGSASSHNSASWGQGGKKQMKCSLKGGNNDSWMNPLAKQFSNMGLLSQTEDNPSSKMDLSVGSLSDKKFDVDKRAMNLGDFNDIMRKDRSGFRPPNSKDMGTTDSGPYFEKGGSHGLFGNSTAQSRGLHTPVQPLNSSPSLRAQVPPQFISPQVSASMLKQFPNSGLSPGLFNVGPQLSPQQIAMLSQLPQIPQFQLACQLLLQQQQQQQLLQNQRKISQAVRQQQEQQLARMVSALQQQQQQQQRQPGMKHSPSHPVGPKPHLDNMVPNALNVGLPDLQTKGPIPGYGSGFSSGGMDYGMVGGKEAGTESRFKQWTSMMEGLPSVATQEANMHKNGAIVAPGKTRGGSPYNQFDIIPGDTLGGHTGPAGDSWLPAKSPPTNKIGSKSSNASWPPEFQPGVPWKGIQNIDPESDPYVTPGSVLGGTATSPIVDTDHQLLRDNTTGSNSSLNTSLPSPGAWPYSASDNSFTNVHSTSAKFPDYKSTWSPDPIGHNPTHLSNKMWKNHISSRNTTPLPRPPPGLTNPKPSSPWSSTAPRSVRGWGTQDSRLASASTWSDGGSVRPSYWLVLHNLTPQIDGSTLRTICMQHGPLLTFHLNLTQGTALIRYSTKQEAAKAQTALHMCVLGNTTILAEFATDDEVSRFLAQAQPPTPAATPSAPAAGWQSLETGQNQSDPVGPALNLFGGSTGLGQWSSSAGGSSGADLAGASLWGPPNYSSSLWGVPTVEDPHRMGSPAPLLPGDLLGGGSDSI

Variants of: B1
Conditions: with ago2_human AGO2, Q9UKV8
Chain of ago2_human AGO2, Q9UKV8 (Q9UKV8 whole entry): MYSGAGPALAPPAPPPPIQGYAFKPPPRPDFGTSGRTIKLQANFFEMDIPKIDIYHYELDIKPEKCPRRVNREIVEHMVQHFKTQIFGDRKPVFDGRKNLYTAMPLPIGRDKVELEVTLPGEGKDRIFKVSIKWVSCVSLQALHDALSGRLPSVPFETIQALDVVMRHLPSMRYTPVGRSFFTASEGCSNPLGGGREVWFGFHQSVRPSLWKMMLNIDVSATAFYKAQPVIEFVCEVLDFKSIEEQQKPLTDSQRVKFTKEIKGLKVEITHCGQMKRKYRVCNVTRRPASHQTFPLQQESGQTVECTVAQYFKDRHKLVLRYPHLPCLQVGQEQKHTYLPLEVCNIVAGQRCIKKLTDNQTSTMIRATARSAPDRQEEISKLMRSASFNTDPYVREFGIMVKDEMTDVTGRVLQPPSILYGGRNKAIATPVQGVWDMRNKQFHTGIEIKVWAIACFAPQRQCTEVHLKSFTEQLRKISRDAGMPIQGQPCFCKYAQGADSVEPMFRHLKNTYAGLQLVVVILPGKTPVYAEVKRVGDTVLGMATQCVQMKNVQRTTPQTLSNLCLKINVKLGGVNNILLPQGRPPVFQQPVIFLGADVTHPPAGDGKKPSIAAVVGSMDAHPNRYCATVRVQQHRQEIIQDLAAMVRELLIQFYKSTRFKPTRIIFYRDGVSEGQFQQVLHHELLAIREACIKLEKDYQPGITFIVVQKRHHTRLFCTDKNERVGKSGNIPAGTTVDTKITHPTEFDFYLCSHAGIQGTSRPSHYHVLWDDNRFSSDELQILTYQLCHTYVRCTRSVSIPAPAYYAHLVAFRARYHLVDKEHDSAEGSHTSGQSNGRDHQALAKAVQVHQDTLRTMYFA

Variant	effect of a mutation on the interaction
W215F	disrupting interaction
W205A;W215A	disrupting interaction
W205F	disrupting interaction
